Target: hKGF receptor on the surface of PC-3 prostatic carcinoma cells (UniProt P21802)
Test: saturation binding of 125I-hKGF on PC-3 cells, Scatchard analysis

specific hKGF binding sites per cell (sites per cell): 5000
B1: Recombinant human Keratinocyte Growth Factor (hKGF) (ligand, UniProt P21781 32-194, looked up)
chain: CNDMTPEQMATNVNCSSPERHTRSYDYMEGGDIRVRRLFCRTQWYLRIDKRGKVKGTQEMKNNYNIMEIRTVAVGIVAIKGVESEFYLAMNKEGKLYAKKECNEDCNFKELILENHYNTYASAKWTHNGGEMFVALNQKGIPVRGKKTKKEQKTAHFLPMAIT

Reference: patent US20060229273A1
